{"source": "the nanobody polyreactivity screen of Harvey et al. (2022)", "data": [{"test": "yeast display, Sf9 membrane polyspecificity reagent, FACS + sequencing; frameworks hold sequencing errors", "procedure,_shortened": "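Polyreactivity labels are assigned by the sorting gate from which each nanobody was recovered. The gates were low and high (top ~1%), set on anti-HA fluorescence for expression and streptavidin fluorescence for reagent binding. Before sorting, galactose-induced (36–48 hours) yeast display cells were stained for 1 hour at 4 °C with 10% biotinylated, detergent-solubilized Sf9 membrane reagent.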", "values": [{"sequence": "HGQLVDSGGGLVQAGGSLRLICAASGYTYYDYAMGRYREAPGKEMELVADISTSDGSTFYADSVKGRFTISRDNAKNTVYLQMNSLKPEDTAVYYCNTDGSLGLYDWFWPSNNDYWGQGTQVTVSS", "polyreactivity (PSR sort gate)": "low polyreactivity"}, {"sequence": "QVQLVESGGCLVQAGGSLRLSCAASGRSFRLYAMGGYRQAPGKERELVAAITRGGRTNYADSVKGRFTISRDNAKNTVYLQMNSLKPEDTAVYYCAARYVERHTDYYYWGQGTQVTVSS", "polyreactivity (PSR sort gate)": "low polyreactivity"}, {"sequence": "QVQLVESGGGLDQAGGSLRLSCAASGLTLAVNAMGCYRQAPGKERELVAAISRRGGSTYYADSVKGRFTISRDNSKNPVYLQMNSLKPEDTAVYYCAAKYNYSEMDSWGQGTQVTVSS", "polyreactivity (PSR sort gate)": "high polyreactivity"}, {"sequence": "QVQLVESGGGLVQAGGSLRLSCAASGRIFVINAMGWYRQAPGKERELVAAISQSGGSTYYADSVKGRFTISRDNAKNTVYLQMNSLKPEDTAVYYCNALSNVPYDYWGQGTQVTVSS", "polyreactivity (PSR sort gate)": "low polyreactivity"}, {"sequence": "QVQLVESGGGLVQAGGSLRISCAASGGIFQRYDMGWYRKATGKERELVAAITRSGGSTYYADSVKGRFTISRDNAKNTVYLQMNSLKPEDTAVYYCAARTYGCYEYWGQGTQVTVSS", "polyreactivity (PSR sort gate)": "high polyreactivity"}, {"sequence": "QVQLVESRGGLVQAGGSLRLSCAASGRTIINYAMGCYRQAPRKERELVAAITTGGRTNYADSVKGRFTISRDNAQNTVYLQMNSMKPEDTAVYYCNAVRYYRYYYWGQGTQVTVSS", "polyreactivity (PSR sort gate)": "low polyreactivity"}, {"sequence": "QVQLVESGGGIVQAGGSLRLSCAASGSTFDSYAMGWYGQAPGKERELVATISWTGSSTYYADSVKGRFTISRDNAKNTVYLQMNSLKPEDTAVYYCATDQYYEYDYWGQGTQVTVSS", "polyreactivity (PSR sort gate)": "low polyreactivity"}, {"sequence": "QVQLVESGGGLVQAGGSLRLSCAASGHIFPTNAMGWYRQAPGKERELVAVISESVGSTYYADSVKGRFTISRDNAKNTVYLQMNSLKPEDTAVYYCAVRSRTPRAYYYWGQGTQVTVSS", "polyreactivity (PSR sort gate)": "low polyreactivity"}, {"sequence": "QVQLVESGGGLVQAGGSLRLSCAASGSTFTVNGMGWYRQATGKESELVAAIDGGDGSTYYADSVKGRFTISRDNAKNTVYLQMNSLKPEDTAVYYCAADPPGFTQYGYWGQGTQVTVSS", "polyreactivity (PSR sort gate)": "low polyreactivity"}, {"sequence": "QVQLVESGGGLVQAGGSLRLSCAASGRTIQYYAMGWYRQAPGKERELVAAITRSGGRTYYADSVKGRFTISRDNAKNTVYLQMNSLKPEDTAVYYCARVSSSVHVDYDYWGQGTQVTVSS", "polyreactivity (PSR sort gate)": "high polyreactivity"}, {"sequence": "QVQLVESGGVLVQAGGSLRLSCAASGFTFGPYAMGWYRPAPGKERELVATIRSGDSTNYADSVKGRFTISRDNAKNTVYLQMNSLKPEDTAVYYCARDARASARRKRYDYGGQGTQVTVSS", "polyreactivity (PSR sort gate)": "low polyreactivity"}, {"sequence": "QVQLVESGGGLVQAGGSLRLSCAASGSIFGGYAMGWYRQAPGKERELVAAISRTGGRTYYADSVKGRFTISRDNAKNTVYLQMNSLKPEDTAVYYCAARVVHQSRYSYEYWGQGTQVTVSS", "polyreactivity (PSR sort gate)": "high polyreactivity"}, {"sequence": "QVQLVESGGGLVQAGGSLRLSCDASGRIFQPNVMGWYRQAPGKERELVAAIRSGSSTYYADSVKGRFTISRDNAKNTFYLQMNSLKPEDTAVYYCATRYRKQYKPYEYWGQGTQVTVSS", "polyreactivity (PSR sort gate)": "high polyreactivity"}, {"sequence": "QVQHVESAGGLVQAGGSLRLICAASGSIFFHYGMGWYRQAPGKERELVADIRSGGSTYYADSVKGRFTSSRDNAKNTVYLQMNSLKPDDSAVYYCAAVLALFGVTHVDYWGQGTQVSVSS", "polyreactivity (PSR sort gate)": "low polyreactivity"}, {"sequence": "QVQLVESGGGLVQAGGSLRLSCAASYAMGWYRQAPGKERELVATITSGGVSTYYADSVKGRFTISRDNAKNTVYLQMNSLKPEDTAVYYCAATASHSTSADYDYWGQGTQVTVSS", "polyreactivity (PSR sort gate)": "low polyreactivity"}, {"sequence": "QVQLVESGGGLVQAGGSLRLSCAASGFTFSSYALGWSRQAPGKERELVAAISTRGGSTYYADSVKGRFTISRDNAKNTVYLQRNSLKPEDTADYYCATGGRGGRRYEYWGQGTQVTVSS", "polyreactivity (PSR sort gate)": "low polyreactivity"}, {"sequence": "QVQLVESGGGLVQAGGSLRLSCAASGGIFKSNTMGWYRQAPGKERELFAAITSGGSTNYADSVKGRFTISRDNAKNTVYLQMNSLKPEDTAVYYCNTDDRYYTPSRAVFQYDYWGQGTQVTVSS", "polyreactivity (PSR sort gate)": "low polyreactivity"}, {"sequence": "QVQLVESGGGLVQAGGSLRLSCAASGIIFSIYAMGWYRQAPGKERELVAAISGRGGRTYYADSVKGRFTISRDNAKNTVYLQMNSLKPVDTAVYYCNAEYHDLYDYWGQGTQVTVSS", "polyreactivity (PSR sort gate)": "low polyreactivity"}, {"sequence": "QVQLVESGGGLVQAGGSLRLTCAASGSTFNRYAMGWYRQAPGKERELVAAITSTGGTNYADSVKGRFTISLDNAKNTVYLQMNSLKPEDTAFYYCAKRWLRWRSNYWGQGTQVTVSS", "polyreactivity (PSR sort gate)": "high polyreactivity"}, {"sequence": "QVQLVESGGGLVQAGGSLRLSCAASGRIFYTYAMGWYRQAPGKERELVAVISSGGSTNYADSVKGRFTISRDNAKNTVYLQMNSLKPEDTAVYYCAAYGTKWGRGFYITGYGYWGQGTQVTVSS", "polyreactivity (PSR sort gate)": "low polyreactivity"}, {"sequence": "QVQLVESGGGLVQAGGSLRLSCAASGSTFWGYAMAWYRQAPGKERELVATINQSAGSTYYADSVKGRFTISRDNAKNTVYLQMNSLKPEDTAVYYCAAEARVQFSYDYWGQGTQVTVSS", "polyreactivity (PSR sort gate)": "low polyreactivity"}, {"sequence": "QVQLVESGAGLVQAGGSLRLSCAASGSIFQPYAMGWYRQAPGKERELVAAISSSGGSTTYADSVKGRFTISRDNAKNTVYLQMNSLKPEDTADYYCAADSADDMGYWGQGTQVTVSS", "polyreactivity (PSR sort gate)": "low polyreactivity"}, {"sequence": "QVHLVESGGGLVQAGGSLRLSCAAYGFIFYPYAMGWNRQEPGKERELVAAIDWNGGGTYYADSVKGRFTISRDNAKNTVYLQMNSLKPEDTAVYYCNTYGAYTFDYWGQGTQVTVSS", "polyreactivity (PSR sort gate)": "high polyreactivity"}, {"sequence": "QVQLQESGGGLVQAGGTITLGYYMGWYRQAPGKEREFVAGIDTGAITYYADSVKGRFTNSRDNAKNTVYLQMNSLKPEDTAVYYCAAIQTHTYAHSYCGQGTQVTVSS", "polyreactivity (PSR sort gate)": "high polyreactivity"}, {"sequence": "QVQLVESGGGLVQAGGSLRLSCAASGFIFHDNAMGWYRQAPGKERELVAAIRSTGSTNYADSVKGRFTISRDNAKNTVYLQMNSLKPEDTAVYYCNAGKYQSDTPSLDPTEYPAFYYWGQGTQVTVSS", "polyreactivity (PSR sort gate)": "low polyreactivity"}, {"sequence": "QVQIVESVGGLVQAGGSLRLSCAASGSTVERYAMGWYRKAPGKERELVARITWSGGSTYYADSVKGRFTISLDNAKNTVYVQMNSLKPEDTAVYYCNRDTRYPGYWRVFAKNNYWGQGTQVTVSS", "polyreactivity (PSR sort gate)": "high polyreactivity"}, {"sequence": "QVQLVESGGGLVQAGGSLRLSCAASGSTFFIYAMGWYRPAPGKERELVAAISWRDGSTYYADSVKGRFTISRDNAKNTVYLQMNSLKPEDTAVYYCAADYLLPWGIELDYWGQGTQVTVSS", "polyreactivity (PSR sort gate)": "high polyreactivity"}, {"sequence": "QVQLVESGGGLVQAGGSLRLSCAATGRIFTTYAMGWYRQAPGKERELVAAITSGGGTYYADSVKGRFTISRDNAKNTVYLQMNSLKPEDTAVYYCNADYSADYYWYYYCGQGTQVTVSS", "polyreactivity (PSR sort gate)": "low polyreactivity"}, {"sequence": "QVQLVESGGGLVQAGGSLRLSCAASGSTFFRNAMGWYRQAPGKERELVAAISKSGTSTYYADSVKGRFTISRDNAKNTVYLQMNSLKPEDTAVYYCAKYGFSYPQSYAYYYWGQGTQVTVSS", "polyreactivity (PSR sort gate)": "high polyreactivity"}, {"sequence": "QVQLVESGGGLLQAGGSLSLSCAASGLILANYAMGWYRQAPGKERELVAAISSSGGSTYYADSVKGRFTISRDNAKNTVYLQMNSLKPEDTAVYYCAAYPLYRRRWTGDYWGQGTQVTVSS", "polyreactivity (PSR sort gate)": "high polyreactivity"}, {"sequence": "QVQIVESGGGLVQAGGSLRLSCAASGSIFASYTMGWYRQAPGKERELGATIRRTGSTYYADSVKGRFTISRDNAKNTVYLQMNSLKPDDTAVYYCAAGLRRKQGLTSGYEYGGQGTQVTVSS", "polyreactivity (PSR sort gate)": "high polyreactivity"}, {"sequence": "QDQLVESGGGLVQAGGSLRLSCAASGRINAMGWYRQAPGKERELVAVITLRGGSTYYADSVKGRFTISRDNAKNTVYLQMNSLKPEDTAVYYCAAETLVSFWFDYWGQGTQVTVSS", "polyreactivity (PSR sort gate)": "low polyreactivity"}, {"sequence": "QVQLVESGGGLVQAGGSLRLSCAPSGTTFTRNAMGWYREAPGKERELVAAISFSGGSTYYADSVKGRFTISRDNAKNTVYIQMNSLKPEDTAVYYCATKVEYRYYYWGQGTQVTVSS", "polyreactivity (PSR sort gate)": "high polyreactivity"}, {"sequence": "QVQLVESGGGLVQAGGSLRLSCAASGSTVHYMGWYRPAPGKERELVAGISWSGGSTYYADSVKGRFTISRDNAKNTVYLQMTSLKPEDTAVYYCAADIKIRLYTTGDYWGQGTQVTVSS", "polyreactivity (PSR sort gate)": "low polyreactivity"}, {"sequence": "QVQLVESGGGLVQAGGSLRLSCAATGRTFEGYAMGWYRQAPGKERELVAAISNSGGSTYYADSVKGRFTISRDNAKNTVYLQMNSLKPEDTAVYDCAALSRIRRYGYWGQGTQVNVSS", "polyreactivity (PSR sort gate)": "high polyreactivity"}, {"sequence": "QVQLVESGGGLVQAGGSLRLSCAASGRTFYRNDMVWYRQSPGKERELVARITSGGSTNYADSVKGRFTISRDNAKNTVYLQMNSLKPEDTGVYYCAAVSRYYPYGYWGQGTQVTVSS", "polyreactivity (PSR sort gate)": "high polyreactivity"}, {"sequence": "QVQLVESGGGLVQAGRSLRLSCAASGFTFLVYAMGWYRQAPGTERELVAAMSNGGSTNYADSVKGRFTITRDTAKNTVYLHMNSLKPEDTAVYYCAADDPRDHWYTAMDYWGQGTQVTVSS", "polyreactivity (PSR sort gate)": "low polyreactivity"}, {"sequence": "QVQLVESGGGLVQAGGSLRLSCAASGRISTRYTMGWYRQAPRKERELVAAISGNAGRTYYADSVKGRFTISRDNAKNTVYLEMNSLKPADTAVYYCARESGYRAYEIQFYYWGQGTQVTVSS", "polyreactivity (PSR sort gate)": "high polyreactivity"}, {"sequence": "QVQLVESGGGLVQAGGSLRLICAASGRIFKINAMGWYRQAPGKERELVAGISGSGSDTYYADSVKGSFTISRDNAKYTVYLQMNSLKPEDTAVYYCAAVAYDWALFYYWGQGTQVTVSS", "polyreactivity (PSR sort gate)": "low polyreactivity"}, {"sequence": "QVQLVESGGGLVQAGGSLRLSCAASGRIFKRYAMGWSRQAPGKDRELVATITTSGDSTYYADSVKGRFTISRDNAKNTVYLQMNSLKPEDTAVYDCAARSYRGRRYDYWGQGTQVTVSS", "polyreactivity (PSR sort gate)": "high polyreactivity"}, {"sequence": "QVQLVESGGGLVQAGGSLRLSCAASGITFFDYAMGWSRQAPGKERELVAAIDLSDGRTYYADSVKGRFTISRDNAKNTFYLQMNSLKPEDTAVYYCAAVSTSLYWAGYDYWGQGTQVTVSS", "polyreactivity (PSR sort gate)": "low polyreactivity"}, {"sequence": "QVQLVESGGGLVQAGGSLRLSCAASGFTFKQYGMGWYRQAPGKERELVASISYRGGSTHYADSVKGRFTISRDNAKNTVYLQMNSLKPEDTAVYYCAARVTSRTSIKGDYWGQGTQVTVSS", "polyreactivity (PSR sort gate)": "low polyreactivity"}, {"sequence": "QVQLVESGGGLVQAGGSLRLSCAASGRTSFWNAMGWYRQAPGKERELVSAISASVGRTYYADSVKGRFTISRDNAKNTVYLQMNSLKPEDTAVYYSAKVYHAGTGYPSLGLDYWGQGTQVTVSS", "polyreactivity (PSR sort gate)": "low polyreactivity"}]}]}
